# Laboratory results: patent publication US20250206839A1, “METHODS, COMPOSITIONS AND USES FOR SEMA7A MONOCLONAL ANTIBODIES” (THE REGENTS OF THE UNIVERSITY OF COLORADO, A BODY CORPORATE, priority 2022, published 2025)
# T1: purified SEMA7A (Homo sapiens, UniProt O75326)
# T1 construct: Fc; made in house; host or cells: cells stably transfected with SEMA7A-Fc plasmid (human breast cancer cells); purified from medium
# T1 sequence (O75326 45-648 limits assumed): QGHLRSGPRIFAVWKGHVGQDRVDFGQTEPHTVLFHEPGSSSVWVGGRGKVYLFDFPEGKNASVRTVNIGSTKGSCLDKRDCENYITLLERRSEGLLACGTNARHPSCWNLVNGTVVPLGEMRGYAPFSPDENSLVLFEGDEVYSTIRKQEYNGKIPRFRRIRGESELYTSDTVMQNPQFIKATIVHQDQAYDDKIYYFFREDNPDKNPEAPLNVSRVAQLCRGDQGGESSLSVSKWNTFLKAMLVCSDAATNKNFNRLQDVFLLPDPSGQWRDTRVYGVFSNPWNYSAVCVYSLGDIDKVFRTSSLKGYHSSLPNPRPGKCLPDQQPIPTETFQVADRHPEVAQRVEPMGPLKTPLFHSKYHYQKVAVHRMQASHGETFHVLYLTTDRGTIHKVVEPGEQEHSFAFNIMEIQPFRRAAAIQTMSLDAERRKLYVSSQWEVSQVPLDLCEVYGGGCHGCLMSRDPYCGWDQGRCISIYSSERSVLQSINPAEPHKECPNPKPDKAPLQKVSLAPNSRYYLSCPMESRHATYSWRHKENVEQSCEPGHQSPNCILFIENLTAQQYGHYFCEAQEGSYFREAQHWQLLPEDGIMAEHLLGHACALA
# T2: SEMA7A (Homo sapiens, UniProt O75326)
# T2 construct: MCF7 cells endogenously express SEMA7A (75 kDa); endogenous in cells; host or cells: MCF7
# T2 sequence (O75326 45-648): T1 sequence (O75326 45-648 limits assumed)
# B1: SmAbH1: mouse monoclonal antibody against SEMA7A generated using the 10-mer immunizing peptide … (SEQ ID NO: 2) (antibody, V domains shown)
# VH: QVKLQESGTVLARPGASVKMSCKASVYSFTSYWMHWVKQRPGQGLEWIGAIYPGNSDTSYNQKFKGKAKLTAVTSASTAYMELSSLTNEDSAVYYCTRGGAPTMITAYYAMDYWGQGTSVTVSS
# VL: DIQMTQTTSSLSASLGDRVTISCRASQDISNYLNWYQQKPDGTVKLLIYYTSRLHSGVPSRFSGSGSGTDYSLTISNLEQEDIATYFCQQGNTLPWTFGGGTKLEIKR
# Key:
# MCF7 cells = test: Cell viability, crystal violet, 48 h; type: cell-based, human; conditions: MCF7, 500 nM SmAbH1 vs 8 nM Fulvestrant
# Method: (§1) For proliferation assays, cells were plated at 2000 cells per well of a 96-well dish. Four pictures of different regions in each well were taken every four hours for 48 h using an IncuCyte ZOOM (Essen BioScience, Ann Arbor, MI, USA). Percent confluence was determined using the IncuCyte ZOOM software (Essen BioScience). 66cl4 Sema7A DDK cells were plated in a 96-well plate in triplicate at 1,500 cells/well. They sat down over 24 hours and then were treated with 1000 nM IgG control, 10 nM SmAbH1, 100 nM SmAbH1, 200 nM SmAbH1, 500 nM SmAbH1, or 1000 nM SmAbH1. The plate was promptly transferred to the IncuCyte where photos were taken and analyzed every 4 hours for 7 days. For additional treatment studies in MCF7, TC11 and SSM2 cells ([…]) were plated in a 24-well plate in complete media and allowed to sit down over 24 hours. At 24 hours after plating, cells were treated with 500 nM IgG control, 500 nM SmAbH1, 8 nM Fulvestrant or the combination. The plate was incubated at 37 C for 48 hours, then fixed with 10% NBF and stained with crystal violet.
# SSM2 cells = test: Cell viability, crystal violet, 48 h; type: cell-based, mouse; conditions: SSM2, 500 nM SmAbH1 vs 8 nM Fulvestrant
# Method: as §1
# TC11 cells = test: Cell viability, crystal violet, 48 h; type: cell-based, mouse; conditions: TC11, 500 nM SmAbH1 vs 8 nM Fulvestrant
# Method: as §1
# purified SEMA7A = biological target: T1, purified SEMA7A; test: ELISA binding to purified SEMA7A; conditions: serial dilution
# Method: The MultiSorp ELISA 96 well ELISA plate (Thermo Scientific) was coated with 100 μl per well of 50 μg/ml of purified SEMA7A in Coating Buffer A (Thermo Scientific CB07100) and allowed to attach overnight with gentle rocking at 4 degrees. For the peptide competition, half of the antibody was incubated in an Eppendorf tube overnight at a ratio of 1:10 with the SEMA7A peptide on a rotator at 4 degrees. The plate was washed with 200 μl per well of 1× wash buffer (Thermo Scientific WB01) and blocked with 200 μl 1× assay buffer (Thermo Scientific DS98200) for 2 hours and room temp with gentle rocking. 1× assay buffer was removed and a 200 μl serial dilution of SMEA7A mAb in 1× assay buffer was made from columns 1 through 9, with column 10-12 getting 1× assay buffer only. The plate was incubated overnight with gentle rocking at 4 degrees. The plate was washed twice with 200 μl of 1× wash buffer. 100 μl of 200 ng/ml Goat Anti-Mouse IgG HRP (Abcam 97040) in 1× assay buffer was added to columns 1-11, with column 12 getting 1× assay buffer only. The plate was incubated for 2 hours with gentle rocking at room temp. The plate was washed four times with 200 μl 1× wash buffer. 150 μl SuperSignal Femto for ELISA (Thermo Scientific) was mixed 1:1 added to each well and mixed for 1 min and then left to rock at room temperature for 30 minutes. The absorbance was read at 425 nm on a microplate reader.
# pSTAT3 in MDA231 cells = test: Western blot for phosphorylation of STAT3; type: cell-based, human; conditions: MDA231, high SEMA7A
# Source text: (§2) In another exemplary method the human triple negative breast cancer cell lines with low (MDA468) or high (MDA231) levels of SEMATA were again treated with SmAbH1 (CUH1) or commercially available monoclonal antibody-based inhibitors of an integrin receptor for SEMA7A (α6β1) and then evaluated using Western blot for phosphorylation of STAT3 (pSTAT3).
# pSTAT3 in MDA468 cells = test: Western blot for phosphorylation of STAT3; type: cell-based, human; conditions: MDA468, low SEMA7A
# Source text: as §2
# SEMA7A = biological target: T2, SEMA7A; test: Western blot binding on MCF7 control and SEMA7A OE cell lysates; conditions: 200 μg/mL antibody
# Method: In another exemplary method, the ability of an anti-SEMA7A monoclonal antibody to bind to SEMATA was tested. In one exemplary method, CUH1 mAb was validated for binding to MCF7 SEMA7A over expressing cell lysate using Western Blot. Specifically. binding of the CUH1 mAb was detected on lysates from MCF7 control cells and SEMA7A overexpressing (OE) cells using 200 μg/mL of SmAbH1. MCF7 cells endogenously express SEMA7A (75 kDa) but OE cells were engineered to overexpress V5 tagged
# MCF7 cells were lysed with RIPA containing EDTA (Thermo Scientific) and spun at 14K for 15 min. The supernatant was then quantitated using a Qubit Assay (Invitrogen) standard protocol and mixed 3:1 with Laemmli Sample Buffer (BioRad) with 2-mercaptoethanol and heated at 70 degrees for 10 min. 100 μg of lysate was loaded onto 4-20% Tris-Glycine gel (BioRad) and transferred to a PVDF membrane (Milipore). The membrane was blocked with 5% Bovine Serum Albumin (BSA) for 3 hours and then probed with 200 μg/ml of CUH1 in 5% BSA overnight at 4 degrees with gentle rocking. The membrane was washed three times 15 minutes with TBS-T and then probed with 10 ng/ml Goat Anti-Mouse IgG HRP (Abcam 97040) in 5% BSA for 1 hour at room temp. The membrane was washed and then incubated with 1:1 mix SuperSignal West Pico (Thermo Scientific) for 4 min at room temp.
molecule,measurement,setting,value
B1,cell viability compared to fulvestrant,MCF7 cells,more significantly reduced
same,cell viability compared to fulvestrant,SSM2 cells,more significantly reduced
same,cell viability compared to fulvestrant,TC11 cells,more significantly reduced
same,binding to purified SEMA7A,purified SEMA7A,bound to purified SEMA7A in a dose dependent manner
same,downstream STAT3 activation (pSTAT3),pSTAT3 in MDA231 cells,blocking block downstream STAT3 activation similar to integrin blockade
same,downstream STAT3 activation (pSTAT3),pSTAT3 in MDA468 cells,blocking block downstream STAT3 activation similar to integrin blockade
same,binding to SEMA7A in cell lysates,SEMA7A,successfully bound to both endogenous (75 kDa) and overexpressed (100 kDa) SEMA7A
